Data taken from patent US6579848B1, “Depigmenting activity of agouti signal protein and peptides thereof” (The United States of America as represented by the …, priority 1995, dated 2003).

B1: agouti protein: Recombinant murine agouti signal protein purified from a baculovirus expression system (protein)
chain: MDVTRLLLATLVSFLCFFTVHSHLALEETLGDDRSLRSDSSMNSLDFSSVSIVALNKKSKKISRKEAEKRKRSSKKKASMKKVARPPPPSPCVATRDSCKPPAPACCDPCASCQCRFFGSACTCRVLNPNC

Key:
TRP2 [1] = test: Northern blotting of TRP2 RNA in melan-a cells; assay type: cell-based, murine
Method: These techniques were performed as described previously (Aroca et al., 1993). Briefly, 2.0 μg of mRNA, isolated using a total RNA isolation kit and mRNA purification kit (Promega, Madison, Wis.), were electrophoresed and then blotted to Sure-Blot nylon membranes (Oncor, Gaithersburg, Md.), hybridized with ^32P-labeled probes, dehybridized and rehybridized with other probes again as necessary. TYRS-J, the probe specific for tyrosinase, was kindly provided by Drs. H. Yamamoto and T. Takeuchi, Sendai, Japan and is described in Yamamoto et al Japan J. Genetics Vol 62:271-274, 1987. pMT4, specific for TRP1, was provided by Dr. S. Shibahara, Sendai, Japan and is described in Shibahara, S. et al Nucleic Acid Res. Vol 14:2413-2427, 1986. TRP2a, specific for TRP2 was provided by Dr. I. Jackson, Edinburgh, Scotland and is described in Jackson, I et al. EMBO Vol 11:527-535, 1992. gp100, specific for silver, was provided by Dr. Y. Kawakami, Bethesda, Md. and is described in Kawakami et al PNAS, Vol. 91, 6458-6462, 1994.
Recombinant agouti protein was purified from baculovirus system by Dr. Michael Ollmann in Dr. Gregory Barsh's laboratory by methods known in the art. 2×10^6 cells were seeded per 15 cm diameter dish. The medium was changed everyday, and fresh agouti protein and/or αMSH added everyday usually at 10 nM. To examine transcriptional regulation, total RNA was isolated and Northern blotting performed by methods described in Example 1. The A26 probe to the MSH-R was provided by Dr. R. Cone and is described in Mountjoy et al. Science 257:1248-1251, 1992. At the translational level, metabolic labeling was used in conjunction with immunoprecipitation as described in Example 1. Western blotting and enzyme assay was used to examine function.
The effects of agouti protein on expression of TRP1, TRP2, and the MSH receptor were examined.
Total RNA was extracted from cells using an RNeasy total RNA isolation kit (QIAGEN, Catsworth, Calif.), following the manufacturer's instructions. […]

TRP2 [2] = test: DOPAchrome tautomerase enzyme assay on extracts of treated melan-a cells; assay type: cell-based, murine; settings: extracts of melan-a cells cultured 5 days; 10 nM
Method: Assays for melanogenic catalytic activities as described below were carried out at pH 6.8, 37° C. for 60 minutes. (1) Tyrosine hydroxylase activity was measured using the [^3H]tyrosine assay (Hearing and Ekel, 1976; Hearing, 1987). This method specifically measures the tritiated water produced during the hydroxylation of tyrosine to DOPA. (2) DOPA oxidase activity was measured using incorporation of [3-^14C]DOPA into acid-insoluble melanin as detailed previously (Aroca et al., 1993). (3) DOPAchrome tautomerase activity was measured by HPLC as the disappearance of DOPAchrome substrate and the production of DHICA rather than DHI; data are converted to pmol products by comparison with known standards. The HPLC assay was detailed previously (Palumbo et al., 1987; Tsukamoto et al., 1992). (4) DHI oxidase and DHICA oxidase activities were measured by HPLC as the disappearance of these substrates from reaction mixtures compared to controls for spontaneous auto-oxidation; data are converted to pmol by comparison with known standard (Aroca et al., 1993). (5) Melanin production was measured using incorporation of [^14C]tyrosine into acid-insoluble melanin, also as detailed previously (Hearing and Ekel, 1976; Hearing, 1987); pmol melanin produced are calculated from the radioactive product. […]

| Molecule | increase in TRP2 RNA level (TRP2 [1]; 10 nM, 5 days) | DOPA chome tautomerase (TRP2 [2]) | RNA level of TRP2 (TRP2 [1]; 10 nM, 5 days) | level of TRP2 RNA (TRP2 [1]; 24 hours, different concentrations) |
| --- | --- | --- | --- | --- |
| α-melanocyte stimulating hormone [MSH, reference compound] | 50% | 555.0 pmol/μg protein/hr |  |  |
| B1 |  | 0.0 pmol/μg protein/hr | nearly a fivefold decrease | reduced, but not to the same extent as tyrosinase RNA |
